In the supplement of paper PMC10567573 one finds protein stability index data, which are given here for 94 variants.

B1: PPP2R2C (parent)
chain: YSSSKGSLRLCDMRAAALCDKHSK
B2: TRAF3IP2 (parent)
chain: PRPPSNPPARGTLKTSNLPEELRK
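Note: lentivirally expressed fusions sorted by FACS into six bins by GFP to DsRed ratio, PSI derived from sequencing read proportions per bin multiplied by bin number.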

In the first series the parent is B1. As to the kind of experiment: protein stability index of a GFP-peptide fusion (GPS, HEK-293T) (PSI 1-6); higher = more stable. As to conditions: c terminus: a fixed tail appended.
On to YKSSKGSLRLCDMRAAALCDKHSK [S2K], for which the protein stability index is 3.58. Same read-out and setting: the same measure for YQSSKGSLRLCDMRAAALCDKHSK [S2Q]: 1.94. Same read-out and setting: with YLSSKGSLRLCDMRAAALCDKHSK [S2L] the figure was 2.52; with YNSSKGSLRLCDMRAAALCDKHSK [S2N], 3.28; with YDSSKGSLRLCDMRAAALCDKHSK [S2D], 3.89. As for YASSKGSLRLCDMRAAALCDKHSK [S2A], the protein stability index is 2.44.

As for YESSKGSLRLCDMRAAALCDKHSK [S2E], the protein stability index is 3.84. Regarding YSSSKNSLRLCDMRAAALCDKHSK [G6N], the protein stability index was 1.94.

As for YSSSKDSLRLCDMRAAALCDKHSK [G6D], the protein stability index amounted to 2.73. On the same count and under the same terms, the same measure for YSSSKVSLRLCDMRAAALCDKHSK [G6V]: 2.21; for YSSSKRSLRLCDMRAAALCDKHSK [G6R]: 2.05. Still for that read-out and setting: with YSSSKISLRLCDMRAAALCDKHSK [G6I] the figure was 2.31; with YSSSKQSLRLCDMRAAALCDKHSK [G6Q], 2.39; with YSSSKPSLRLCDMRAAALCDKHSK [G6P], 2.48. On the same count and under the same terms, the same measure for YSSSKFSLRLCDMRAAALCDKHSK [G6F]: 1.81; for YSSSKLSLRLCDMRAAALCDKHSK [G6L]: 2.18. As for YSSSKTSLRLCDMRAAALCDKHSK [G6T], the protein stability index was 2.07. Still for that read-out and setting: the same measure for YSSSKHSLRLCDMRAAALCDKHSK [G6H]: 2.04; for YSSSKCSLRLCDMRAAALCDKHSK [G6C]: 1.95.

In the case of YSSSKYSLRLCDMRAAALCDKHSK [G6Y], the protein stability index amounted to 1.52. Still for that read-out and setting: the same measure for YSSSKSSLRLCDMRAAALCDKHSK [G6S]: 1.82; for YSSSKKSLRLCDMRAAALCDKHSK [G6K]: 2.2. YSSSKWSLRLCDMRAAALCDKHSK [G6W]: the protein stability index was found to be 1.76.

With YSSSKESLRLCDMRAAALCDKHSK [G6E], the protein stability index came to 2.68. Still for that read-out and setting: the same measure for YSSSKASLRLCDMRAAALCDKHSK [G6A]: 1.91; for YSSSKMSLRLCDMRAAALCDKHSK [G6M]: 1.85; for YSSSKGILRLCDMRAAALCDKHSK [S7I]: 1.34. Same read-out and setting: with YSSSKGVLRLCDMRAAALCDKHSK [S7V] the figure was 2.24. Still for that read-out and setting: with YSSSKGWLRLCDMRAAALCDKHSK [S7W] the figure was 3.69; with YSSSKGGLRLCDMRAAALCDKHSK [S7G], 4.06. Turning to YSSSKGHLRLCDMRAAALCDKHSK [S7H], the protein stability index was determined as 2.92. On the same count and under the same terms, with YSSSKGNLRLCDMRAAALCDKHSK [S7N] the figure was 1.65. Take YSSSKGDLRLCDMRAAALCDKHSK [S7D]: the protein stability index was determined as 2.24. Same read-out and setting: with YSSSKGYLRLCDMRAAALCDKHSK [S7Y] the figure was 1.94.

Consider YSSSKGCLRLCDMRAAALCDKHSK [S7C], for which the protein stability index came out at 1.76.

As to YSSSKGPLRLCDMRAAALCDKHSK [S7P], the protein stability index was found to be 1.89.

On to YSSSKGALRLCDMRAAALCDKHSK [S7A], for which the protein stability index was 2.9. Turning to YSSSKGMLRLCDMRAAALCDKHSK [S7M], the protein stability index came out at 1.76. Same read-out and setting: the same measure for YSSSKGLLRLCDMRAAALCDKHSK [S7L]: 1.49; for YSSSKGELRLCDMRAAALCDKHSK [S7E]: 1.56.

On to YSSSKGTLRLCDMRAAALCDKHSK [S7T], for which the protein stability index turned out to be 1.8. Same read-out and setting: with YSSSKGQLRLCDMRAAALCDKHSK [S7Q] the figure was 2.04; with YSSSKGRLRLCDMRAAALCDKHSK [S7R], 2.04; with YSSSKGKLRLCDMRAAALCDKHSK [S7K], 1.07. Still for that read-out and setting: the same measure for YSSSKGSLPLCDMRAAALCDKHSK [R9P]: 3.11. For YSSSKGSLELCDMRAAALCDKHSK [R9E], the protein stability index is 3.7. Same read-out and setting: with YSSSKGSLSLCDMRAAALCDKHSK [R9S] the figure was 3.81. The same measure, in the same setting: with YSSSKGSLNLCDMRAAALCDKHSK [R9N] the figure was 3.45; with YSSSKGSLKLCDMRAAALCDKHSK [R9K], 3.11; with YSSSKGSLILCDMRAAALCDKHSK [R9I], 1.7. As for YSSSKGSLCLCDMRAAALCDKHSK [R9C], the protein stability index amounted to 3.28. Same read-out and setting: with YSSSKGSLLLCDMRAAALCDKHSK [R9L] the figure was 3.61; with YSSSKGSLYLCDMRAAALCDKHSK [R9Y], 1.76; with YSSSKGSLDLCDMRAAALCDKHSK [R9D], 4.21. The same measure, in the same setting: with YSSSKGSLQLCDMRAAALCDKHSK [R9Q] the figure was 3.3. The same measure, in the same setting: with YSSSKGSLMLCDMRAAALCDKHSK [R9M] the figure was 1.9; with YSSSKGSLTLCDMRAAALCDKHSK [R9T], 3.28; with YSSSKGSLFLCDMRAAALCDKHSK [R9F], 2.37.

On to YSSSKGSLVLCDMRAAALCDKHSK [R9V], for which the protein stability index was 2.91. Same read-out and setting: the same measure for YSSSKGSLHLCDMRAAALCDKHSK [R9H]: 2.42; for YSSSKGSLGLCDMRAAALCDKHSK [R9G]: 1.9; for YSSSKGSLALCDMRAAALCDKHSK [R9A]: 2.63. Same read-out and setting: the same measure for YSSAKGSLRLCDMRAAALCDKHSK [S4A]: 2.44; for YSSDKGSLRLCDMRAAALCDKHSK [S4D]: 2.96; for YSSYKGSLRLCDMRAAALCDKHSK [S4Y]: 1.98.

For the variant YSSWKGSLRLCDMRAAALCDKHSK [S4W], the protein stability index was determined as 1.63. Consider YSSLKGSLRLCDMRAAALCDKHSK [S4L], for which the protein stability index was determined as 2.62. As for YSSEKGSLRLCDMRAAALCDKHSK [S4E], the protein stability index is 2.78.

Turning to YSSVKGSLRLCDMRAAALCDKHSK [S4V], the protein stability index turned out to be 2.45. The same measure, in the same setting: the same measure for YSSNKGSLRLCDMRAAALCDKHSK [S4N]: 2.32. On the same count and under the same terms, the same measure for YSSCKGSLRLCDMRAAALCDKHSK [S4C]: 1.38; for YSSRKGSLRLCDMRAAALCDKHSK [S4R]: 2.11.

As to YSSGKGSLRLCDMRAAALCDKHSK [S4G], the protein stability index is 2.87. With YSSPKGSLRLCDMRAAALCDKHSK [S4P], the protein stability index was determined as 2.57. On the same count and under the same terms, with YSSTKGSLRLCDMRAAALCDKHSK [S4T] the figure was 1.8; with YSSHKGSLRLCDMRAAALCDKHSK [S4H], 2.09; with YSSIKGSLRLCDMRAAALCDKHSK [S4I], 2.06. For the variant YSSFKGSLRLCDMRAAALCDKHSK [S4F], the protein stability index stood at 2.27. Still for that read-out and setting: with YSSQKGSLRLCDMRAAALCDKHSK [S4Q] the figure was 2.32; with YSSKKGSLRLCDMRAAALCDKHSK [S4K], 1.34. Consider YSSMKGSLRLCDMRAAALCDKHSK [S4M], for which the protein stability index stood at 2.

Variants of B2 are the subject of the next series. The description is as above. As to conditions: c terminus: a fixed tail appended.
Take PRPPSNPPARGTLKTSNLPEELRW [K24W]: the protein stability index came out at 4.19. On the same count and under the same terms, with PRPPSNPPARGTLKTSNLPEELRM [K24M] the figure was 4.26. The same measure, in the same setting: with PRPPSNPPARGTLKTSNLPEELRV [K24V] the figure was 4.53; with PRPPSNPPARGTLKTSNLPEELRH [K24H], 4.79; with PRPPSNPPARGTLKTSNLPEELRI [K24I], 4.24. Still for that read-out and setting: the same measure for PRPPSNPPARGTLKTSNLPEELRY [K24Y]: 3.78; for PRPPSNPPARGTLKTSNLPEELRP [K24P]: 3.9; for PRPPSNPPARGTLKTSNLPEELRS [K24S]: 4.7. Turning to PRPPSNPPARGTLKTSNLPEELRR [K24R], the protein stability index was 4.75. The same measure, in the same setting: with PRPPSNPPARGTLKTSNLPEELRQ [K24Q] the figure was 4.66; with PRPPSNPPARGTLKTSNLPEELRN [K24N], 4.87. Take PRPPSNPPARGTLKTSNLPEELRT [K24T]: the protein stability index was 4.8. Still for that read-out and setting: the same measure for PRPPSNPPARGTLKTSNLPEELRL [K24L]: 4.31.
